Measurements published in patent US20220298237A1 (KEIO UNIVERSITY, published 2022).
“And” between values parts separate entries of the source, which are not always exact repeats. Equal values may be shown once.

T1: oligopeptide TAGIFATYPSGHLDM (SEQ ID NO: 105)
T1 construct: Synthetic peptide, part of Loop C of AQP3
T1 peptide: TAGIFATYPSGHLDM

T2: oligopeptide ATYPSGHLD (SEQ ID NO: 101)
T2 construct: Synthetic peptide, part of Loop C of AQP3
T2 peptide: ATYPSGHLD

T3: oligopeptide ATYPSGHLDM (SEQ ID NO: 1) (human and mouse)
T3 construct: Synthetic peptide; positions 148 to 157 of the human AQP3 polypeptide, identical in mouse; also called peptide used for immunization; oligopeptide 5
T3 peptide: ATYPSGHLDM

T4: oligopeptide ATYPSGH (SEQ ID NO: 103)
T4 construct: Synthetic peptide, part of Loop C of AQP3
T4 peptide: ATYPSGH

T5: oligopeptide GHLDM (SEQ ID NO: 100)
T5 construct: Synthetic peptide, part of Loop C of AQP3
T5 peptide: GHLDM

T6: oligopeptide TYPSGHLDM (SEQ ID NO: 96)
T6 construct: Synthetic peptide, part of Loop C of AQP3
T6 peptide: TYPSGHLDM

T7: oligopeptide GIFATYPSGHLDM (SEQ ID NO: 107)
T7 construct: Synthetic peptide, part of Loop C of AQP3
T7 peptide: GIFATYPSGHLDM

T8: oligopeptide YPSGHLDM (SEQ ID NO: 97)
T8 construct: Synthetic peptide, part of Loop C of AQP3; first diluted in DMSO
T8 peptide: YPSGHLDM

T9: oligopeptide PSGHLDM (SEQ ID NO: 98)
T9 construct: Synthetic peptide, part of Loop C of AQP3
T9 peptide: PSGHLDM

T10: oligopeptide SGPNGTAGIFATYPS (SEQ ID NO: 94)
T10 construct: Synthetic peptide, part of Loop C of AQP3
T10 peptide: SGPNGTAGIFATYPS

T11: oligopeptide IFATYPSGHLDM (SEQ ID NO: 108)
T11 construct: Synthetic peptide, part of Loop C of AQP3
T11 peptide: IFATYPSGHLDM

T12: oligopeptide ATYPSGHL (SEQ ID NO: 102)
T12 construct: Synthetic peptide, part of Loop C of AQP3
T12 peptide: ATYPSGHL

T13: oligopeptide FATYPSGHLDM (SEQ ID NO: 109)
T13 construct: Synthetic peptide, part of Loop C of AQP3
T13 peptide: FATYPSGHLDM

T14: oligopeptide ATYPSG (SEQ ID NO: 104)
T14 construct: Synthetic peptide, part of Loop C of AQP3
T14 peptide: ATYPSG

T15: oligopeptide SGHLDM (SEQ ID NO: 99)
T15 construct: Synthetic peptide, part of Loop C of AQP3
T15 peptide: SGHLDM

T16: oligopeptide AGIFATYPSGHLDM (SEQ ID NO: 106)
T16 construct: Synthetic peptide, part of Loop C of AQP3
T16 peptide: AGIFATYPSGHLDM

T17: mouse aquaporin 3 (AQP3) on cells (mouse, UniProt Q8R2N1 1-292)
T17 construct: whole, on cells; Water channel membrane protein; also called mouse AQP3; AQP3 on PAM212 cells
T17 sequence (looked up): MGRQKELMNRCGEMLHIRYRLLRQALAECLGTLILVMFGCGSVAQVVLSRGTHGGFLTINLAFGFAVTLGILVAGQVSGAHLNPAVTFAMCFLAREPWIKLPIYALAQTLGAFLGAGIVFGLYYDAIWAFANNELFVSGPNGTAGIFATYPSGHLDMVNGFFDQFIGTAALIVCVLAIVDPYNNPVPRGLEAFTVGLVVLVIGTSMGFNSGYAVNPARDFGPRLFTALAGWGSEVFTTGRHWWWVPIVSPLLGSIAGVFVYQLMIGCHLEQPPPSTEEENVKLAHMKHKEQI

T18: human aquaporin 3 (AQP3) on cells (human, UniProt Q92482 1-292)
T18 construct: whole, on cells; Water channel membrane protein; also called human AQP3; AQP3 on HaCaT cells
T18 sequence (looked up): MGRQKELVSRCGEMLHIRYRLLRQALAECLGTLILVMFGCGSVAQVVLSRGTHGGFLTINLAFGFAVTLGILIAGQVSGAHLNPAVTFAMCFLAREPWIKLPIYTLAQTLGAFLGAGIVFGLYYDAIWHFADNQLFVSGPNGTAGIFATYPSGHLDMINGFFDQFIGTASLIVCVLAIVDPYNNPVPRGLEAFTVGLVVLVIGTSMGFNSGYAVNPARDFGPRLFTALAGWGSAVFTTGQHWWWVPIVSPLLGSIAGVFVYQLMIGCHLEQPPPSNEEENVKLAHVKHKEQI

T19: oligopeptide SRGTHGGFL (SEQ ID NO: 2)
T19 construct: Synthetic peptide of AQP3 Loop A; also called Loop A peptide; control peptide
T19 peptide: SRGTHGGFL

B1: BC-B10 (IgG) (antibody, V domains shown)
VH: QSVEESGGRLVTPGAPLTLTCTVSRFSLSSYAMTWVRQAPGKGLEWIGIINNDVISSTWYASWVKGRFTISKTSTTMELKMTSLTTEDTATYFCARGGTSGYDIWGPGTLVTVSS
VL: AIKMTQTPSPVSAAVGGTVTINCQSSPSVYKNYLSWYQQKPGQPPKLLIYGASTLASGVPSRFKGSGSGTQFTLTISDVQCDDAATYYCAGGYIGSRDIFSFGGGTEVVVK
notes: also called anti AQP3 antibody BC-B10
B2: SC-B6 (IgG) (antibody, V domains shown)
VH: QSVKESGGRLVTPGAPLTLTCTVSGFSLNNYAMTWVRQAPGKGLEWIGIINNDGISSTWYASWVKGRFIISKTSTTVDLKMTSLTTEDTATYFCARGGTSGYDIWGPGTLVTVSL
VL: AQGPTQTPSPVSAAVGGTVTINCQSSPSVYKNYLSWYQQKPGQPPKLLIYGASTLASGVPSRFKGSRSGTQFTLTISDVQCDDAATYYCAGGYIGSRDIFSFGGGTEVVVK
notes: also called anti AQP3 antibody SC-B6
B3: BC-H9 (IgG) (antibody, V domains shown)
VH: QSLEESGGRLVTPGTPLTLTCTVSGFSLYTYAMGWVRQAPGKGLEWIGIINNDGISSTWYASWVKGRFTISKTSTTMDLKMTSLTTEDTATYFCARGGTSGYDIWGPGTLVTVSL
VL: AQGLTQTPSPVSAAVGGTVTINCQSGPSVYKNYLSWYQQKAGQPPKLLIYGASTLASGVPSRFKGSGSGTQFTLTISDVQCDDAATYYCAGGYRGSSDIFAFGGGTEVVVK
notes: also called anti AQP3 antibody BC-H9

Experiments:
[1] = biological target: T1, oligopeptide TAGIFATYPSGHLDM (SEQ ID …); test: ELISA on coated peptide
Method: (§1) To determine the important amino acid residues of an epitope in Loop C involved in binding to specific AQP3 antibody clones, peptides of varying lengths were produced. The sequences of these peptides are shown in column 2 of Table 4.
(§2) The various peptides and AQP3 antibody clones were subjected to ELISA binding analyses. […] The microtiter wells (Costar 2690) were coated with 50 μL of each peptide at 4° C. overnight. The wells were washed 3 times with PBS and blocked with 100 μL of 1% BSA/PBS at 37° C. for 1 hour. Each antibody was adjusted to 1 μg/mL in 1% SBA/PBS as above then serially diluted 1:5 in 1% BSA/PBS. The blocker was discarded and the wells were incubated with 50 μL of antibodies at 37° C. for 1.5 hours. The wells were washed 3 times with PBS and mouse antibodies were detected with 50 μL of goat anti-mouse IgG (H+L) HRP conjugate (ThermoFisher 31438) (1:5,000 in 1% BSA/PBS) and rabbit antibodies were detected with 50 μL of goat anti-rabbit IgG (H+L) HRP conjugate (ThermoFisher 31462) (1:5,000 in 1% BSA/PBS) at 37° C. for 1 hour. The wells were washed 3 times with PBS and developed with 50 μL of HRP substrate at RT for 5 min then stopped with 50 μL of 2N sulfuric acid and binding was measured with a plate reader.

[2] = biological target: T2, oligopeptide ATYPSGHLD (SEQ ID NO: 101); test: ELISA on coated peptide
Method: as §1, §2

[3] = biological target: T3, oligopeptide ATYPSGHLDM (SEQ ID NO: 1); test: ELISA on coated peptide
Method: as §1, §2

[4] = biological target: T4, oligopeptide ATYPSGH (SEQ ID NO: 103); test: ELISA on coated peptide
Method: as §1, §2

[5] = biological target: T5, oligopeptide GHLDM (SEQ ID NO: 100); test: ELISA on coated peptide
Method: as §1, §2

[6] = biological target: T6, oligopeptide TYPSGHLDM (SEQ ID NO: 96); test: ELISA on coated peptide
Method: as §1, §2

[7] = biological target: T7, oligopeptide GIFATYPSGHLDM (SEQ ID NO: …); test: ELISA on coated peptide
Method: as §1, §2

[8] = biological target: T8, oligopeptide YPSGHLDM (SEQ ID NO: 97); test: ELISA on coated peptide
Method: as §1, §2

[9] = biological target: T9, oligopeptide PSGHLDM (SEQ ID NO: 98); test: ELISA on coated peptide
Method: as §1, §2

[10] = biological target: T10, oligopeptide SGPNGTAGIFATYPS (SEQ ID …); test: ELISA on coated peptide
Method: as §1, §2

[11] = biological target: T11, oligopeptide IFATYPSGHLDM (SEQ ID NO: …); test: ELISA on coated peptide
Method: as §1, §2

[12] = biological target: T12, oligopeptide ATYPSGHL (SEQ ID NO: 102); test: ELISA on coated peptide
Method: as §1, §2

[13] = biological target: T13, oligopeptide FATYPSGHLDM (SEQ ID NO: …); test: ELISA on coated peptide
Method: as §1, §2

[14] = biological target: T14, oligopeptide ATYPSG (SEQ ID NO: 104); test: ELISA on coated peptide
Method: as §1, §2

[15] = biological target: T15, oligopeptide SGHLDM (SEQ ID NO: 99); test: ELISA on coated peptide
Method: as §1, §2

[16] = biological target: T16, oligopeptide AGIFATYPSGHLDM (SEQ ID NO: …); test: ELISA on coated peptide
Method: as §1, §2

[17] = biological target: T17, mouse aquaporin 3 (AQP3) on cells; test: fluorescence binding assay on PAM212 cells with AQP3 siRNA (10% of AQP3 expression) against control siRNA, 1 µg/mL (FIG. 19)
Method: The resulting siRNA AQP3 cell line had 10% of the AQP3 expression compared to the control siRNA cell line. The siRNA AQP3 and control siRNA PAM212 cells were reacted with SC—F8, BC—H9, BC—B10, and SC—B6 at the chosen concentration 1 μg/mL at 4° C. for 1 hour. After washing the cells, a fluorescent-labeled secondary antibody was added and the reaction was allowed to occur additionally for 1 hour (at 4° C.). By measuring the fluorescence intensity, the binding property of each anti AQP3 antibody to the two cell lines was obtained.
The result of the above experiment is shown in FIG. 19, wherein the vertical axis represents fluorescence intensity, and the mean fluorescence intensity of each sample is represented by bar height together with standard error.

[18] = biological target: T18, human aquaporin 3 (AQP3) on cells; test: fluorescence binding assay on HaCaT cells, 10 µg/mL
Method: HaCaT cells were reacted with each anti AQP3 antibody at concentrations of none, 1 ng/mL, 10 ng/mL, 100 ng/mL, 1 μg/mL, or 10 μg/mL at 4° C. for 1 hour. After washing the cells, a fluorescent-labeled secondary antibody was added and the reaction was allowed to occur additionally for 1 hour (at 4° C.). By measuring the fluorescence intensity, the binding property of each anti AQP3 antibody to cells was obtained.

[19] = biological target: T19, oligopeptide SRGTHGGFL (SEQ ID NO: 2); test: ELISA on peptide SEQ ID NO:2 (FIG. 16B)
[20] = biological target: T17, mouse aquaporin 3 (AQP3) on cells; test: fluorescence binding assay on PAM212 cells, 10 µg/mL
Method: (§3) PAM212 cells were reacted with each anti AQP3 antibody at concentrations of none, 1 ng/mL, 10 ng/mL, 100 ng/mL, 1 μg/mL, or 10 μg/mL at 4° C. for 1 hour. After washing the cells, a fluorescent-labeled secondary antibody was added and the reaction was allowed to occur additionally for 1 hour (at 4° C.). By measuring the fluorescence intensity, the binding property of each anti AQP3 antibody to cells was obtained.

[21] = biological target: T3, oligopeptide ATYPSGHLDM (SEQ ID NO: 1); test: ELISA on peptide SEQ ID NO:1, IgG, 50% binding response (FIG. 16A)
[22] = biological target: T17, mouse aquaporin 3 (AQP3) on cells; test: cell-based or functional assay
[23] = biological target: T17, mouse aquaporin 3 (AQP3) on cells; test: fluorescence binding assay on PAM212 cells, 1 ng/mL to 10 µg/mL (FIG. 17A)
Method: as §3

Row | Binder | binding signal (plate reader) [1] | binding signal (plate reader) [2] | binding signal (plate reader) [3] | binding signal (plate reader) [4] | binding signal (plate reader) [5] | binding signal (plate reader) [6] | binding signal (plate reader) [7] | binding signal (plate reader) [8] | binding signal (plate reader) [9] | binding signal (plate reader) [10] | binding signal (plate reader) [11] | binding signal (plate reader) [12] | binding signal (plate reader) [13] | binding signal (plate reader) [14] | binding signal (plate reader) [15] | binding signal (plate reader) [16] | fold fluorescence intensity over no antibody [18] [fold] | binding result [19] | fold fluorescence intensity over no antibody [20] [fold] | EC50 [21] | further results
1 | B1 | 3.99 | 3.96 | 3.98 | 3.91 | 0.123 | 3.96 | 3.88 | 3.96 | 3.72 | 3.76 | 3.88 | 4 | 3.92 | 3.54 | 0.405 | 3.9 | > 2 | no binding | ≥ 2 | 0.01 µg/mL and ~0.06 nM | fold decrease in fluorescence intensity on AQP3 siRNA cells against control siRNA cells [17]: ~2 fold
2 | B2 | 3.96 | 3.92 | 3.98 | 3.44 | 0.097 | 4 | 3.79 | 3.96 | 2.23 | 2.02 | 3.69 | 4 | 3.87 | 0.915 | 0.135 | 3.83 | > 2 | no binding | ≥ 2 | 0.01 µg/mL and ~0.06 nM | decrease in H2O2 uptake in PAM212 cells against no antibody control [22]: ~2 fold
3 | B3 | 3.92 | 3.9 | 3.94 | 3.16 | 0.048 | 3.99 | 3.8 | 3.94 | 0.733 | 0.824 | 3.76 | 3.9 | 3.75 | 0.627 | 0.053 | 2.65 |  | no binding |  | 0.01 µg/mL and ~0.06 nM | binding result [23]: binds
